Results on 17 molecules are retold here after patent publication US20040254352A1, “Lipid-polymer-conjugates” (priority 2001, published 2004).

“And” between values parts separate entries of the source, which are not always exact repeats. Equal values may be shown once. A value given as a limit tells only on which side of the number the result lay.

A short description of series [1]: Comparative kinetics of 3H-labelled liposomes containing polymer-lipid-conjugates after a single intravenous injection to the rat (blood circulation time). The following applies: for Increase of blood circulation time: rat, single i.v. injection; for Blood circulation time of the liposomes compared with PEG-grafted liposomes: intravenous administration to rats.
Description: Single-dose intravenous injection of liposomal preparations, each containing ^3H-labelled cholesteryloleylether (Amersham) having 40-50 kBq of radioactivity, (compositions per 50 μmol lipid are shown in Table 1) was given into the tail-vein. Total Lipid administered was 5 μmol, except in the cases indicated.
Blood samples were collected from the tail vein of each rat at the following time points post-dose: 5 minutes and 4, 24 and 48 hours. The amount of sample collected was approx. 300 μl per sampling event.
Sampled blood was transferred into heparinised tubes and stored at −20° C.
A single aliquot of 100 μl was solubilised according to the following method:
Radioactivity was measured by LSC.
All radioactive measurements were performed using a Packard scintillation counter (1900TR). Counting time was to a statistical precision of ±0.2% or a maximum of 5 minutes, whichever comes first. The Packard 1900TR was programmed to automatically subtract background and convert counts per minute (CPM) to disintegrations per minute (DPM).
The increase of blood circulation time was assessed, wherein:
Moderate means effect on circulation time in between those shown by PEG-DSPE-containing liposomes and bare liposomes without polymer coating.
Slightly means effect on circulation time under the current conditions almost similar to that shown by bare liposomes.
Series [2] can be described thus: Particle size and polydispersity of liposomes by (dynamic) light scattering. The note with it: DPPC/cholesterol/conjugate liposomes of Table 1 (Example 21); for Average particle size: dynamic light scattering. It counts as physicochemical. How it is done:
The lipid loss during preparation of the liposomes was 25%, determined by comparing the final radioactivity of the preparation with the activity before the extrusion procedure. The suspension of liposomes was stored in a nitrogen atmosphere at 4° C. Liposomes were prepared using the film method, as described in example 20. Instead of egg phosphatidylcholine dipalmitoyl phosphatidylcholine was used. 5 mM HEPES buffer was added to the dry lipid film and shaken during 5 minutes in the presence of glass beads in order to enable complete hydration of the lipid film. The liposomes were sized by extrusion 12 times through 2 stacked PC membranes having pore sizes of 100 and 200 nm. […] See table 1 for the properties of the liposomal preparations.

Assay in series [3]: as above
It counts as physicochemical.

Series [4] is described as follows: Storage stability of prednisolone phosphate liposomes at 4° C. (percentage encapsulated prednisolone phosphate versus time). The following applies: compared with poly(2-hydroxyethyl)-L-glutamine-diaminobutane DODASuc-conjugate-containing liposome.
Setting [5] is: Total Lipid administered 5 μmol.
Setting [6] is: prednisolone phosphate liposomes of Example 23, light scattering.
The mark [7] stands for this setting: Total Lipid administered 0.005 μmol.
[8] abbreviates: Total Lipid administered 0.05 μmol.
Setting [9] is: Total Lipid administered 0.5 μmol.
Where [10] appears, read: 11.2 mg conjugate per 50 µmol lipid.
Where [11] appears, read: 13.8 mg conjugate per 50 µmol lipid.

As for `CCCCCCCCCCCCCCCCCCN(CCCCCCCCCCCCCCCCCC)C(=O)CCC(=O)NCCC(=O)NCCC(=O)NCCC(=O)N[C@@H](CCC(=O)NCCO)C(=O)NCCC(=O)NCCC(=O)NCCC(=O)NCCC(=O)N[C@@H](CCC(=O)NCCO)C(=O)NCCC(=O)NCCC(=O)NCCC(=O)N[C@@H](CCC(=O)NCCO)C(=O)NCCC(=O)NCCC(N)=O` [Ex. 19, DODASuc-(β-Ala)3-HEG-(β-Ala)4-HEG-(β-Ala)3-HEG-(β-Ala)2-NH2], the “Increase of blood circulation time” value in series [1] (setting [5]) is “Moderate”.
In series [2], Cholesteryl-PHEG [Ex. 6] yielded a Polydispersity index of 0.116 and an Average particle size of 138.7 ± 1.8 nm. In addition, the “Increase of blood circulation time” value in series [1] (setting [5]) is recorded as “Slightly”.
In series [3] (setting [6]), “PEG-distearoylphosphatidylethanol-amine [PEG-DSPE, reference compound]” registered a Mean particle size of around 90 nm. For the same molecule, in series [2], the Average particle size is 156.3 nm. The “Increase of blood circulation time” value in series [1] (setting [7]) is “<Slightly”; in series [1] (setting [8]) it was “Good”; in series [1] (setting [9]) it was “Good”; in series [1] (setting [5]), “Good”.
For the molecule PHEG-diaminobutane DODASuc [Ex. 5.1], in series [2], the Polydispersity index is 0.090 and 0.073; the Average particle size was 140.3 ± 2.2 nm and 159.0 ± 3.8 nm. In series [1], the “Blood circulation time of the liposomes compared with PEG-grafted liposomes” value was “Results similar to those obtained with the corresponding PEG-grafted liposomes”. Besides, in series [1] (setting [5]), the “Increase of blood circulation time” value was “Good and Good §”.
Turning to “Poly(2-hydroxyethyl)-DL-glutamine diaminobutane DODASuc [Ex. 7]”, in series [2], the Polydispersity index is 0.073 and the Average particle size is recorded as 159.0 ± 3.8 nm.
Regarding “Poly(2-hydroxyethyl)-L-asparagine DODASuc [Ex. 11]”, the “Stability of liposomal preparation with encapsulated prednisolone phosphate” value in series [4] is “slightly better result”. For the same molecule, the “Blood circulation time of the liposomes compared with PEG-grafted liposomes” value in series [1] is given as “Results similar to those obtained with the corresponding PEG-grafted liposomes”. Moreover, the “Increase of blood circulation time” value in series [1] (setting [7]) is “Slightly”; in series [1] (setting [8]) it was “Good”; in series [1] (setting [9]), “Good”; in series [1] (setting [5]), “Good and Good §”.
For the molecule “Poly(D,L-methionine sulfoxide) DODASuc [Ex. 15]”, in series [2], the Polydispersity index is 0.062 and the Average particle size stood at 159.9 ± 2.3 nm. In series [1], the “Blood circulation time of the liposomes compared with PEG-grafted liposomes” value was “Results similar to those obtained with the corresponding PEG-grafted liposomes”. Besides, the “Increase of blood circulation time” value in series [1] (setting [5]) is reported as “Good”.
On to Poly(DL-asparagine) DODASuc [Ex. 17], for which the “Increase of blood circulation time” value in series [1] (setting [5]) is given as “Moderate”.
For the molecule Poly(DL-glutamine DODASuc [Ex. 16], the “Increase of blood circulation time” value in series [1] (setting [5]) was “Moderate”.
On to Poly(DL-serine) DODASuc [Ex. 13], for which, in series [1] (setting [5]), the “Increase of blood circulation time” value is on record as “Slightly”.
In series [2], “Poly(N-(2-hydroxyethyl)-L-glutamine) Having a Heptadecyloctadecylamine End Group [Ex. 2]” came in with a Polydispersity index of 0.205 and an Average particle size of 143 ± 2 nm.
As for Poly-L-threonine DODASuc [compound 14], in series [3] (setting [6]), the Mean particle size entry is “about 85 nm”.
Regarding “Poly-[(2-hydroxypropyl)-L-glutamine]diaminobutane DODASuc [Ex. 5.2]”, in series [2] (setting [10]), the Average particle size worked out at 163.9 ± 3.0 nm and the Polydispersity index amounted to 0.068. For the same molecule, in series [2] (setting [11]), the Average particle size is given as 153.0 ± 0.9 nm and the Polydispersity index is on record as 0.090.
“Poly-[(4-hydroxybutyl)-L-glutamine]diaminobutane DODASuc [Ex. 5.4]”: in series [2], the Polydispersity index turned out to be 0.071 and the Average particle size amounted to 148.2 ± 1.7 nm.
In series [2], “Poly-[N-(2-hydroxyethyl)-L-glutamine] Having a Distearylamine End Group Introduced Via N-Boc-1,4-diaminobutane as Initiator [Ex. 3]” had a Polydispersity index of 0.056 and an Average particle size of 153 ± 0.5 nm.
In series [2], “poly(HEG-co-dimethylaminoethylglutamine)diaminobutane DODASuc; 5% dimethylaminoethyl sidegroups [Ex. 9]” came in with a Polydispersity index of 0.039 and an Average particle size of 170.3 ± 2.5 nm. Also, the “Increase of blood circulation time” value in series [1] (setting [5]) is listed as “Moderate”.
“poly-[N-(2-hydroxyethyl)-L-glutamine]-stearylamine [Ex. 20]” showed a Polydispersity index in series [3] (EPC/cholesterol/PHEG-stearylamine liposomes of Example 20) of 0.099±0.02. This molecule yielded a Mean particle size in series [3] (EPC/cholesterol/PHEG-stearylamine liposomes of Example 20, light scattering (Malvern Zeta-sizer)) of 93.6±0.9 nm. In series [2], this molecule yielded a Polydispersity index of 0.167 and an Average particle size of 171.6 ± 2.5 nm.
